Experimental findings from publication PMC4889030 (Molecular cell, 2016) are described below.

Assay in all cases: pull-down
The target of experiment [1] is T1, full length ^FlagCRBN expressed in CRBN-KO 293FT cells (human, UniProt Q96SW2 1-442).
The target in experiment [2] is T1, full length ^FlagCRBN expressed in …. This is another data set of the same source.
The target in experiment [3] is ^FlagCRBN H357Y (human, UniProt Q96SW2 1-442, H357Y).

Like-named read-outs stand apart in the source and are kept apart here. Where no end group is shown, it is not given here.

T1 sequence (Q96SW2 whole entry): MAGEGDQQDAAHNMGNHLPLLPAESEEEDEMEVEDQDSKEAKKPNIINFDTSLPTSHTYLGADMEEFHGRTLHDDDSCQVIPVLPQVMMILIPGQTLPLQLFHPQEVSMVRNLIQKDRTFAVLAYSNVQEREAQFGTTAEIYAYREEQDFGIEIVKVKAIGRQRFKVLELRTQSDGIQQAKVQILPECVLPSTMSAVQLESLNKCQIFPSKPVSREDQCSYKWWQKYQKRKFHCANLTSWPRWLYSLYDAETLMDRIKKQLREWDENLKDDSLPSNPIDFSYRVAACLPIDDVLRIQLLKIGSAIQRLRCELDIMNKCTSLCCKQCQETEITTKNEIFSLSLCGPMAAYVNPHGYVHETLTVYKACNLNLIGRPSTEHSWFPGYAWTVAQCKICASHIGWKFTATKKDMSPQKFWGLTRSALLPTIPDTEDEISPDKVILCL
Sequence of ^FlagCRBN H357Y (Q96SW2 whole entry H357Y): as the sequence (Q96SW2 whole entry) above, with H357Y counted along it

Turning to ASSHLNK(Ac)GIK(Ac)QVYMSLPQ (peptide, UniProt P15104 5-22, looked up, also: biotinylated, place not given here) [biotinylated synthetic GS peptide (amino acids 5-22 of GS), di-acetylated on K11 and K14], in experiment [1], the binding result is “binds”.
In the case of ASSHLNK(Ac)GIKQVYMSLPQ (peptide, UniProt P15104 5-22, looked up, also: biotinylated, place not given here) [biotinylated synthetic GS peptide (amino acids 5-22 of GS), mono-acetylated on K11], the binding result in experiment [2] and in experiment [3] was “binds” in each case.
Take ASSHLNKGIK(Ac)QVYMSLPQ (peptide, UniProt P15104 5-22, looked up, also: biotinylated, place not given here) [biotinylated synthetic GS peptide (amino acids 5-22 of GS), mono-acetylated on K14]: the binding result in experiment [2] was “binds”.
